Experimental findings from patent US20160000891A1 are described below.

In the experiment the target is PF-4 in cynomolgus plasma (cynomolgus). The experiment can be described thus: aligned sandwich ELISA, cynomolgus plasma. A general note: ELISA stands for enzyme-linked immunosorbent assay.

For “monoclonal anti-HPF4 antibody (Abcam cat. no.: ab49735)”, the AUC Ratio (vs anti-HPF4) turned out to be 1 and the anti-HPF4 AUC mean amounted to 2.79.
